Test results published in publication PMC5761276 (Journal of the American Chemical Society, 2017).

What was measured:
Grb2-Alexa Fluor 647 [1] = target: T1, Grb2-Alexa Fluor 647 (UniProt P62993 1-217, Alexa Fluor 647 (site not stated)); experiment: single-molecule dwell time analysis
Grb2-Alexa Fluor 647 [2] = target: T1, Grb2-Alexa Fluor 647; experiment: ITC

T1 sequence (P62993 whole entry): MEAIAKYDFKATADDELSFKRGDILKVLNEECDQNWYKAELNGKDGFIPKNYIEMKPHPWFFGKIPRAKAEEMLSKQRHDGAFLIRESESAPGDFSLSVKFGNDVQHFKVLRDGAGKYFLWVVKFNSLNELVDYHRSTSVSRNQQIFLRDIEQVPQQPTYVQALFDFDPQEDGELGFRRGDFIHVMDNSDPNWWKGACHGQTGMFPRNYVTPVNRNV

Binder	koff (Grb2-Alexa Fluor 647 [1])	Kd (Grb2-Alexa Fluor 647 [2])
LAT-FFFY (monovalent LAT1Y, residue 48-233), phosphorylated (domain or fragment, phosphotyrosine at Y226; Alexa Fluor 568 (site not stated)) GIQFKRPHTVAPWPPAFPPVTSFPPLSQPDLLPIPRSPQPLGGSHRTPSSRRDSDGANSVASFENEEPACEDADEDEDDFHNPGFLVVLPDSTPATSTAAPSAPALSTPGIRDSAFSMESIDDFVNVPESGESAEASLDGSREFVNVSQELHPGAAKTEPAALSSQEAEEVEEEGAPDYENLQELN	1.4 s⁻¹	459 nM
LAT-FFYF (monovalent LAT1Y, residue 48-233), phosphorylated (domain or fragment, phosphotyrosine at Y191; Alexa Fluor 568 (site not stated)) GIQFKRPHTVAPWPPAFPPVTSFPPLSQPDLLPIPRSPQPLGGSHRTPSSRRDSDGANSVASFENEEPACEDADEDEDDFHNPGFLVVLPDSTPATSTAAPSAPALSTPGIRDSAFSMESIDDFVNVPESGESAEASLDGSREYVNVSQELHPGAAKTEPAALSSQEAEEVEEEGAPDFENLQELN	3.3 s⁻¹	195 nM
